Molecular target: Dansyl-calmodulin (dansyl-CaM), purified, P0DP23
Test: other fluorescence titration
Conditions: remark: other sources report otherwise

B1: Regulator of G Protein Signaling 14 (RGS14), purified recombinant protein, O08773 1-544 (natural protein)
chain: MPGKPKHLGVPNGRMVLAVSDGELTSTSGSQAQGEGRGSSLSIHSLPSGPSSPFSTDEQPVASWAQSFERLLQDPRGLAYFTEFLKKEFSAENVTFWQACERFQQIPASDTKQLAQEAHNIYHEFLSSQALSPVNIDRQAWLSEEVLAQPRPDMFRAQQLQIFNLMKFDSYARFVKSPLYQECLLAEAEGRPLREPGSSHLGSPDTARKKPKLKPGKSLPLGVEELGQLPLAEGRPLRKSFRREMPGGAVNSALRRESQGSLNSSASLDLGFLAFVSSKSESHRKSLGSGEGESESRPGKYCCVYLPDGTASLALARPGLTIRDMLAGICEKRGLSLPDIKVYLVGKEQKALVLDQDCTVLADQEVRLENRITFQLELVGLERVVRISAKPTKRLQEALQPILAKHGLSLDQVVLHRPGEKQLVDLENLVSSVASQTLVLDTLPDAKTREASSIPPCRSQGCLPRTQTKDSHLPPLSSSLSVEDASGSTGKRQTCDIEGLVELLNRVQSSGAHDQRGLLRKEDLVLPEFLQLPSQRPGSQEAPP
modifications: here or on the partner: dansyl label (position not given)
stoichiometry N: 1

From article doi:10.1101/247270
